Assay results published in patent US20110020346A1.

How the values were obtained:
[1] = biological target: mouse VEGF-A165 (mouse) (UniProt Q00731); assay: ELISA with purified Fab (direct on coated antigen or solution binding), 25 C
[2] = biological target: T1, murine VEGF (mVEGF) (mouse) (UniProt Q00731); assay: method not stated, 25 C, unpublished results
T1 sequence (looked up): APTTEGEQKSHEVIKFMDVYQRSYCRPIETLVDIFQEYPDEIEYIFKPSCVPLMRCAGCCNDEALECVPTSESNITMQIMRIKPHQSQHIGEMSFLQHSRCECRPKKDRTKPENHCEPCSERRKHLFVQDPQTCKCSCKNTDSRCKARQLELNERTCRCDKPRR

Y0317 Fab, sequence (VH): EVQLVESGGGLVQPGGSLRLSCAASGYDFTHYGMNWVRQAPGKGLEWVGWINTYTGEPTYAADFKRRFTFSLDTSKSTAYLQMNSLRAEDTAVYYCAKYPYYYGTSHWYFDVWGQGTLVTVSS
Y0317 Fab, sequence (VL): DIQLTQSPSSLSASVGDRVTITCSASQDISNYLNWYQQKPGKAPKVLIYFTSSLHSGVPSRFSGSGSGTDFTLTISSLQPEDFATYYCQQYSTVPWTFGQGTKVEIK

Row | Substance | value printed without a name (ELISA) [1] [nM] | Kd [2] [nM]
1 | G6 Fab | 0.6 | –
2 | Y0317 Fab | – | 300
